Test system: T47D-MUC1* breast cancer cells
Test: ADC cell killing, photographs and PrestoBlue live/dead cell assay
Type: cell-based, human
Conditions: 500 nM and 6.2 nM, 120 hours
Method: T47D-MUC1* is a cell line in which T47D cells have been transduced to express even more MUC1*. MNC2-ADC was incubated with T47D-WT cells (FIG. 10A-10G) or T47D-MUC1* cells (FIG. 11A-11G). […] These experiments are shown as just one example. […] The toxin that is attached to the anti-MUC1* antibody may be one of several known to those skilled in the art. Similarly, MNC2 may be human or humanized.
In this next experiment, a valine-citrulline p-aminobenzylcarbamate (VC-PAB) linker was used to connect the deglycosylated antibody and the toxin. The linker is separately coupled to the MMAE at one end, then the other end is reacted with maleimide, then coupled to the antibody after reduction through alkylation. MMAE inhibits cell division by blocking the polymerization of tubulin. […] The viability of the 72 hour co-cultures was measured using a cell death indicator called PrestoBlue™ (Thermo Fisher Scientific, Waltham, MA) (FIG. 17). […]
As another example of how antibodies of the invention can be incorporated into ADCs, antibody drug conjugates, for the treatment of MUC1* positive cancers, a toxin was attached to another anti-MUC1* antibody, 20A10. […] The viability of the 72 hour co-cultures was measured using a cell death indicator called PrestoBlue™ (Thermo Fisher Scientific, Waltham, MA) (FIG. 19). […]

B1: MNC2-Deruxtecan (conjugate)
VH: EVQLVESGGGLVKPGGSLRLSCAASGFTFSGYAMSWVRQAPGKGLEWVSTISSGGTYIYYPDSVKGRFTISRDNAKNSLYLQMNSLRAEDTAVYYCARLGGDNYYEYFDVWGKGTTVTVSS
VL: DIVLTQSPASLAVSPGQRATITCRASKSVSTSGYSYMHWYQQKPGQPPKLLIYLASNLESGVPARFSGSGSGTDFTLTINPVEANDTANYYCQHSRELPFTFGGGTKVEIKRT
  killing effect in photographs: significant decrease in cell number
